Test results: patent publication US20230272055A1 (Incyte, published 2023)

biological target: T1, Recombinant MBP-mutCALR Type 1 fusion protein (human); assay: SPR, IgG captured, 1:1 fit, Exp. 2
T1 construct: custom made at Cepter; also called recombinant mutCALR protein
Experimental: Experiment 2: Recombinant MBP-mutCALR Type 1 fusion protein was custom made at Cepter (cepterbiopartners.com). Data for the interaction of antibodies with recombinant mutCALR protein were collected at 25° C. on a Biacore 8K instrument (Cytiva, Marlborough, Mass.), and all reagents were obtained from Cytiva unless otherwise specified. The experiments were conducted using Tris-buffered saline (pH 7.2), 0.005% Surfactant P20, 1 mM CaCl₂) as running buffer. To prepare the capture surfaces, anti-human IgG (Fc) antibodies (Product #29234600) was amine-coupled onto a CM4 chip (Product #BR100534) under standard conditions using an Amine Coupling Kit (Product #BR100050). […] The kinetics parameters were obtained by applying 1:1 binding model to fit the data from multiple-cycle injection experiments using Biacore Insight Evaluation software.

| Binder | Kd | koff | kon |
| --- | --- | --- | --- |
| anti-mutCALR antibody clone 83 (antibody, human IgG1, lambda, N297A, V domains shown, human IgG1 N297A variant of clone 6) VH: EVQLVQSGAEVKKPGASVKVSCKVSGYTLTELSMQWVRQAPGKGLEWMGGFDPDEGETMYAEKFQGRLTVTEDTSTDTVYMELSSLRSEDTAVYFCATSPGYDFFDYWGQGTLVTVSS VL: SYVLTQPPSVSVAPGKTARITCGGNNIGSKSVHWYQQKPGQAPVLVVYDDSDRPSGIPERFSGSNSGNTATLTISRVEAGDEADYYCQVWDSSNDLLIFGGGTKLTVLG | 1.76 nM | 0.00992 s⁻¹ | 5.62e+06 M⁻¹ s⁻¹ |
| anti-mutCALR antibody clone 125 (antibody, human IgG1, lambda, N297A, V domains shown, human IgG1 N297A variant of clone 15) VH: EVQLVQSGAEVKKPGASVKVSCKVSGYTLTELSMQWVRQAPGKGLEWMGGFDPDAGETMYAEKFQGRLTVTEDTSTDTVYMELRSLTSEDTALYFCATSPGYDFFDYWGQGTLVTVSS VL: SYELTQPPSVSVAPGKTARITCGGDNIGSKSVHWYQQKPGQAPVLVVYDDSDRPSGIPERFSGSNSGNTATLTINRVEAGDEADYYCQVWDSSNDLLIFGGGTKLTVLG | 4.76 nM | 0.0154 s⁻¹ | 3.23e+06 M⁻¹ s⁻¹ |
| anti-mutCALR antibody clone 134 (antibody, human IgG1, lambda, N297A, human IgG1 N297A variant of clone 15) heavy: not shown light: SYVLTQPPSVSVAPGKTARITCGGDNIGSKSVHWYQQKPGQAPVLVVYDDSDRPSGIPERFSGSNSGNTATLTISRVEAGDEADYYCQVWDSSNDLLIFGGGTKLTVLGQPKAAPSVTLFPPSSEELQANKATLVCLISDFYPGAVTVAWKADSSPVKAGVETTTPSKQSNNKYAASSYLSLTPEQWKSHRSYSCQVTHEGSTVEKTVAPTECS | 1.12 nM | 0.00142 s⁻¹ | 1.27e+06 M⁻¹ s⁻¹ |
| anti-mutCALR antibody clone 140 (antibody, human IgG1, lambda, N297A, V domains shown, human IgG1 N297A variant of clone 15) VH: EVQLVQSGAEVKKPGASVKVSCKVSGYTLTELSMQWVRQAPGKGLEWMGGFDPDAGETMYAEKFQGRLTVTEDTSTDTVYMELSSLRSEDTAVYFCATSPGYDFFDYWGQGTLVTVSS VL: SYVLTQPPSVSVAPGKTARITCGGDNIGSKSVHWYQQKPGQAPVLVVYDDSDRPSGIPERFSGSNSGNTATLTISRVEAGDEADYYCQVWDSSNDLLIFGGGTKLTVLG | 7.09 nM | 0.00541 s⁻¹ | 763000 M⁻¹ s⁻¹ |
| anti-mutCALR antibody clone 129 (antibody, human IgG1, lambda, N297A, V domains shown, human IgG1 N297A variant of clone 15) VH: EVQLVQSGAEVKKPGASVKVSCKVSGYTLTELSMQWVRQAPGKGLEWMGGFDPDDGETMYAEKFQGRLTVTEDTSTDTVYMELSSLRSEDTAVYFCATSPGYDFFDYWGQGTLVTVSS VL: SYELTQPPSVSVAPGKTARITCGGDNIGSKSVHWYQQKPGQAPVLVVYDDSDRPSGIPERFSGSNSGNTATLTINRVEAGDEADYYCQVWDSSNDLLIFGGGTKLTVLG | 0.53 nM | 0.00527 s⁻¹ | 9.94e+06 M⁻¹ s⁻¹ |
| anti-mutCALR antibody clone 135 (antibody, human IgG1, lambda, N297A, V domains shown, human IgG1 N297A variant of clone 15) VH: EVQLVQSGAEVKKPGASVKVSCKVSGYTLTELSMQWVRQAPGKGLEWMGGFDPDAGETMYAEKFQGRLTVTEDTSTDTVYMELRSLTSEDTALYFCATSPGYDFFDYWGQGTLVTVSS VL: SYVLTQPPSVSVAPGKTARITCGGDNIGSKSVHWYQQKPGQAPVLVVYDDSDRPSGIPERFSGSNSGNTATLTISRVEAGDEADYYCQVWDSSNDLLIFGGGTKLTVLG | 5.17 nM | 0.00512 s⁻¹ | 991000 M⁻¹ s⁻¹ |
| anti-mutCALR antibody clone 133 (antibody, human IgG1, lambda, N297A, V domains shown, human IgG1 N297A variant of clone 15) VH: EVQLVQSGAEVKKPGASVKVSCKVSGYTLTELSMQWVRQAPGKGLEWMGGFDPDDAETMYAEKFQGRLTVTEDTSTDTVYMELSSLRSEDTAVYFCATSPGYDFFDYWGQGTLVTVSS VL: SYELTQPPSVSVAPGKTARITCGGDNIGSKSVHWYQQKPGQAPVLVVYDDSDRPSGIPERFSGSNSGNTATLTINRVEAGDEADYYCQVWDSSNDLLIFGGGTKLTVLG | 0.826 nM | 0.00702 s⁻¹ | 8.51e+06 M⁻¹ s⁻¹ |
| anti-mutCALR antibody clone 130 (antibody, human IgG1, lambda, N297A, V domains shown, human IgG1 N297A variant of clone 15) VH: EVQLVQSGAEVKKPGASVKVSCKVSGYTLTELSMQWVRQAPGKGLEWMGGFDPDAGETMYAEKFQGRLTVTEDTSTDTVYMELSSLRSEDTAVYFCATSPGYDFFDYWGQGTLVTVSS VL: SYELTQPPSVSVAPGKTARITCGGDNIGSKSVHWYQQKPGQAPVLVVYDDSDRPSGIPERFSGSNSGNTATLTINRVEAGDEADYYCQVWDSSNDLLIFGGGTKLTVLG | 4.71 nM | 0.00509 s⁻¹ | 1.08e+06 M⁻¹ s⁻¹ |
| anti-mutCALR antibody clone 137 (antibody, human IgG1, lambda, N297A, V domains shown, human IgG1 N297A variant of clone 15) VH: EVQLVQSGAEVKKPGASVKVSCKVSGYTLTELSMQWVRQAPGKGLEWMGGFDPDEGETMYAEKFQGRLTVTEDTSTDTVYMELRSLTSEDTALYFCATSPGYDFFDYWGQGTLVTVSS VL: SYVLTQPPSVSVAPGKTARITCGGDNIGSKSVHWYQQKPGQAPVLVVYDDSDRPSGIPERFSGSNSGNTATLTISRVEAGDEADYYCQVWDSSNDLLIFGGGTKLTVLG | 1.27 nM | 0.0095 s⁻¹ | 7.51e+06 M⁻¹ s⁻¹ |
| anti-mutCALR antibody clone 141 (antibody, human IgG1, lambda, N297A, V domains shown, human IgG1 N297A variant of clone 15) VH: EVQLVQSGAEVKKPGASVKVSCKVSGYTLTELSMQWVRQAPGKGLEWMGGFDPDSGETMYAEKFQGRLTVTEDTSTDTVYMELSSLRSEDTAVYFCATSPGYDFFDYWGQGTLVTVSS VL: SYVLTQPPSVSVAPGKTARITCGGDNIGSKSVHWYQQKPGQAPVLVVYDDSDRPSGIPERFSGSNSGNTATLTISRVEAGDEADYYCQVWDSSNDLLIFGGGTKLTVLG | 4.47 nM | 0.0187 s⁻¹ | 4.18e+06 M⁻¹ s⁻¹ |
| anti-mutCALR antibody clone 128 (antibody, human IgG1, lambda, N297A, V domains shown, human IgG1 N297A variant of clone 15) VH: EVQLVQSGAEVKKPGASVKVSCKVSGYTLTELSMQWVRQAPGKGLEWMGGFDPDDAETMYAEKFQGRLTVTEDTSTDTVYMELRSLTSEDTALYFCATSPGYDFFDYWGQGTLVTVSS VL: SYELTQPPSVSVAPGKTARITCGGDNIGSKSVHWYQQKPGQAPVLVVYDDSDRPSGIPERFSGSNSGNTATLTINRVEAGDEADYYCQVWDSSNDLLIFGGGTKLTVLG | 1.61 nM | 0.00207 s⁻¹ | 1.29e+06 M⁻¹ s⁻¹ |
| anti-mutCALR antibody clone 136 (antibody, human IgG1, lambda, N297A, V domains shown, human IgG1 N297A variant of clone 15) VH: EVQLVQSGAEVKKPGASVKVSCKVSGYTLTELSMQWVRQAPGKGLEWMGGFDPDSGETMYAEKFQGRLTVTEDTSTDTVYMELRSLTSEDTALYFCATSPGYDFFDYWGQGTLVTVSS VL: SYVLTQPPSVSVAPGKTARITCGGDNIGSKSVHWYQQKPGQAPVLVVYDDSDRPSGIPERFSGSNSGNTATLTISRVEAGDEADYYCQVWDSSNDLLIFGGGTKLTVLG | 6.7 nM | 0.00507 s⁻¹ | 756000 M⁻¹ s⁻¹ |
| anti-mutCALR antibody clone 138 (antibody, human IgG1, lambda, N297A, V domains shown, human IgG1 N297A variant of clone 15) VH: EVQLVQSGAEVKKPGASVKVSCKVSGYTLTELSMQWVRQAPGKGLEWMGGFDPDDAETMYAEKFQGRLTVTEDTSTDTVYMELRSLTSEDTALYFCATSPGYDFFDYWGQGTLVTVSS VL: SYVLTQPPSVSVAPGKTARITCGGDNIGSKSVHWYQQKPGQAPVLVVYDDSDRPSGIPERFSGSNSGNTATLTISRVEAGDEADYYCQVWDSSNDLLIFGGGTKLTVLG | 0.875 nM | 0.00688 s⁻¹ | 7.86e+06 M⁻¹ s⁻¹ |
| anti-mutCALR antibody clone 131 (antibody, human IgG1, lambda, N297A, V domains shown, human IgG1 N297A variant of clone 15) VH: EVQLVQSGAEVKKPGASVKVSCKVSGYTLTELSMQWVRQAPGKGLEWMGGFDPDSGETMYAEKFQGRLTVTEDTSTDTVYMELSSLRSEDTAVYFCATSPGYDFFDYWGQGTLVTVSS VL: SYELTQPPSVSVAPGKTARITCGGDNIGSKSVHWYQQKPGQAPVLVVYDDSDRPSGIPERFSGSNSGNTATLTINRVEAGDEADYYCQVWDSSNDLLIFGGGTKLTVLG | 4.83 nM | 0.00481 s⁻¹ | 996000 M⁻¹ s⁻¹ |
| anti-mutCALR antibody clone 139 (antibody, human IgG1, lambda, N297A, V domains shown, human IgG1 N297A variant of clone 15) VH: EVQLVQSGAEVKKPGASVKVSCKVSGYTLTELSMQWVRQAPGKGLEWMGGFDPDDGETMYAEKFQGRLTVTEDTSTDTVYMELSSLRSEDTAVYFCATSPGYDFFDYWGQGTLVTVSS VL: SYVLTQPPSVSVAPGKTARITCGGDNIGSKSVHWYQQKPGQAPVLVVYDDSDRPSGIPERFSGSNSGNTATLTISRVEAGDEADYYCQVWDSSNDLLIFGGGTKLTVLG | 0.966 nM | 0.000953 s⁻¹ | 987000 M⁻¹ s⁻¹ |
| anti-mutCALR antibody clone 124 (antibody, human IgG1, lambda, N297A, human IgG1 N297A variant of clone 15) heavy: not shown light: SYELTQPPSVSVAPGKTARITCGGDNIGSKSVHWYQQKPGQAPVLVVYDDSDRPSGIPERFSGSNSGNTATLTINRVEAGDEADYYCQVWDSSNDLLIFGGGTKLTVLGQPKAAPSVTLFPPSSEELQANKATLVCLISDFYPGAVTVAWKADSSPVKAGVETTTPSKQSNNKYAASSYLSLTPEQWKSHRSYSCQVTHEGSTVEKTVAPTECS | 1.04 nM | 0.00128 s⁻¹ | 1.23e+06 M⁻¹ s⁻¹ |
| anti-mutCALR antibody clone 126 (antibody, human IgG1, lambda, N297A, V domains shown, human IgG1 N297A variant of clone 15) VH: EVQLVQSGAEVKKPGASVKVSCKVSGYTLTELSMQWVRQAPGKGLEWMGGFDPDSGETMYAEKFQGRLTVTEDTSTDTVYMELRSLTSEDTALYFCATSPGYDFFDYWGQGTLVTVSS VL: SYELTQPPSVSVAPGKTARITCGGDNIGSKSVHWYQQKPGQAPVLVVYDDSDRPSGIPERFSGSNSGNTATLTINRVEAGDEADYYCQVWDSSNDLLIFGGGTKLTVLG | 1.19 nM | 0.00153 s⁻¹ | 1.29e+06 M⁻¹ s⁻¹ |
| anti-mutCALR antibody clone 132 (antibody, human IgG1, lambda, N297A, V domains shown, human IgG1 N297A variant of clone 15) VH: EVQLVQSGAEVKKPGASVKVSCKVSGYTLTELSMQWVRQAPGKGLEWMGGFDPDEGETMYAEKFQGRLTVTEDTSTDTVYMELSSLRSEDTAVYFCATSPGYDFFDYWGQGTLVTVSS VL: SYELTQPPSVSVAPGKTARITCGGDNIGSKSVHWYQQKPGQAPVLVVYDDSDRPSGIPERFSGSNSGNTATLTINRVEAGDEADYYCQVWDSSNDLLIFGGGTKLTVLG | 2.16 nM | 0.00244 s⁻¹ | 1.13e+06 M⁻¹ s⁻¹ |
| anti-mutCALR antibody clone 84 (antibody, human IgG1, lambda, N297A, V domains shown, human IgG1 N297A variant of clone 6) VH: EVQLVQSGAEVKKPGASVKVSCKVSGYTLTELSMQWVRQAPGKGLEWMGGFDPDDAETMYAEKFQGRLTVTEDTSTDTVYMELSSLRSEDTAVYFCATSPGYDFFDYWGQGTLVTVSS VL: SYVLTQPPSVSVAPGKTARITCGGNNIGSKSVHWYQQKPGQAPVLVVYDDSDRPSGIPERFSGSNSGNTATLTISRVEAGDEADYYCQVWDSSNDLLIFGGGTKLTVLG | 2.01 nM | 0.0018 s⁻¹ | 892000 M⁻¹ s⁻¹ |
